Literature values in publication PMC5533512.

Biological target: CD40 (Homo sapiens) (UniProt P25942)
Chain of UniProt P25942 (P25942 21-193): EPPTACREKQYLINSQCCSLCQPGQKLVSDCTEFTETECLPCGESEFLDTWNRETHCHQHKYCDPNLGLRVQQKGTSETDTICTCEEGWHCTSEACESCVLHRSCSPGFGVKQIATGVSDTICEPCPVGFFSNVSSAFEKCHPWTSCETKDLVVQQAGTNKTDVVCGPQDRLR

dacetuzumab
Kd: 1 nM
